Biological target: the molecule itself
Assay: reduced and non-reduced SDS-PAGE and Western blot of 293HEK cell lysate and culture media (homodimer formation)
Excerpt: The formation of disulfide bonded dimers of modified α-GAL was examined in cell lysate and culture media (FIG. 2A). Clones of each α-GAL construct were transiently expressed in 293HEK cell. Cell lysates and culture media were run on 4-12% gradient SDS-PAGE and transferred to nitrocellulose. α-GAL was detected by Western Blotting with rabbit monoclonal anti- α-GAL 1:2000 (abcam ab168341).
Reduced and non-reduced samples were subjected to electrophoresis and Western blotting.

Row | Protein | binding result
1 | Human α-GAL M51C-G360C (enzyme, It is the full precursor entry; Transiently expressed in 293HEK cells, tested in cell lysate and culture media; also called M51C-G360C α-GAL; modified α-galactosidase A) LDNGLARTPTMGWLHWERFCCNLDCQEEPDSCISEKLFMEMAELMVSEGWKDAGYEYLCIDDCWMAPQRDSEGRLQADPQRFPHGIRQLANYVHSKGLKLGIYADVGNKTCAGFPGSFGYYDIDAQTFADWGVDLLKFDGCYCDSLENLADGYKHMSLALNRTGRSIVYSCEWPLYMWPFQKPNYTEIRQYCNHWRNFADIDDSWKSIKSILDWTSFNQERIVDVAGPGGWNDPDMLVIGNFGLSWNQQVTQMALWAIMAAPLFMSNDLRHISPQAKALLQDKDVIAINQDPLGKQGYQLRQGDNFEVWERPLSGLAWAVAMINRQEICGPRSYTIAVASLGKGVACNPACFITQLLPVKRKLGFYEWTSRLRSHINPTGTVLLQLENTMQMSLKDLL | binds
2 | Human α-GAL D233C-I359C (enzyme, It is the full precursor entry; Transiently expressed in 293HEK cells, tested in cell lysate and culture media; also called D233C-I359C α-GAL; modified α-galactosidase A) LDNGLARTPTMGWLHWERFMCNLDCQEEPDSCISEKLFMEMAELMVSEGWKDAGYEYLCIDDCWMAPQRDSEGRLQADPQRFPHGIRQLANYVHSKGLKLGIYADVGNKTCAGFPGSFGYYDIDAQTFADWGVDLLKFDGCYCDSLENLADGYKHMSLALNRTGRSIVYSCEWPLYMWPFQKPNYTEIRQYCNHWRNFADICDSWKSIKSILDWTSFNQERIVDVAGPGGWNDPDMLVIGNFGLSWNQQVTQMALWAIMAAPLFMSNDLRHISPQAKALLQDKDVIAINQDPLGKQGYQLRQGDNFEVWERPLSGLAWAVAMINRQECGGPRSYTIAVASLGKGVACNPACFITQLLPVKRKLGFYEWTSRLRSHINPTGTVLLQLENTMQMSLKDLL | binds

Source: US20200147241A1 (AMICUS THERAPEUTICS, published 2020)
